# Source: publication PMC7202955 (Current biology : CB, 2020)
# B1: β3 TMD-tail (construct of the cross-linking experiment, Figure S5) (domain or fragment, UniProt P05106 711-788, looked up)
# chain: PECPKGPDILVVLLSVMGAILLIGLAALLIWKLLITIHDRKEFAKFEEERARAKWDTANNPLYKEATSTFTNITYRGT
# Biological target: the molecule itself
# Experiment: cross-linking
protein,measurement,value
B1,stoichiometry N,2
